{
  "source": "paper PMC9734910",
  "target": "PDF-2180 S ectodomain trimer (PDF-2180 (bat coronavirus, infects Pipisrellus hesperidus) | not stated)",
  "test": "cryo-EM structure",
  "data": [
    {"substance": "PDF-2180 S ectodomain trimer (domain or fragment)", "values": [
      {"measurement": "stoichiometry N", "result": 3}
    ]}
  ]
}
